Results from patent publication US20250011428A1 (Novartis, published 2025).

What was measured:
hCD3epsilon-FC antigen [1] = target: T1, hCD3epsilon-FC antigen (human, UniProt P07766 23-126); assay: SPR Biacore T200; hCD3epsilon-FC amine-coupled on CM5, IgG as analyte; design: unit not given here
T1 construct: immobilized by amine coupling on CM5; also called human CD3epsilon

hCD3epsilon-FC antigen [2] = target: T1, hCD3epsilon-FC antigen; assay: SPR Biacore T200; hCD3epsilon-FC amine-coupled on CM5, IgG as analyte; 1:1 model, apparent KD (bivalent analyte)
Method: A CM5 sensor chip (Sensor Chip SA, GE Healthcare Life Sciences) was used to immobilize hCD3epsilon-FC antigen by amine coupling. Then, engineered anti-CD3 hIgG1 were used as the analyte.
Binding data were acquired by subsequent injection of analyte dilution series on the reference and measuring flow cells. Zero concentration samples (running buffer only) were included to allow double referencing during data evaluation. For data evaluation, doubled referenced sensorgrams were analyzed by applying a 1:1 binding model analysis to generate the equilibrium dissociation constant (KD). Binding constant described Table 7 are considered as apparent KD since immunoglobulins used as analyte are bivalent for the immobilized antigen. In addition, maximum response reached during the experiment was monitored. Maximum response describes the binding capacity of the surface in terms of the response at saturation. Finally, measured maximum responses were normalized to the one measured using parental immunoglobulin (not engineered).

[3] = target: T2, recombinant human hFcγR3a (F158V) (human, UniProt P08637 17-208); assay: SPR Biacore T200; IgG amine-coupled on CM5, receptor as analyte; response normalized to parental (=100);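 also: measured at room temperature in pH 7.6 phosphate buffer with Tween 20, double-referenced sensorgrams, maximum response taken as binding capacity at saturation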
T2 construct: also called FcγRIII
T2 sequence (P08637 17-208 F176V): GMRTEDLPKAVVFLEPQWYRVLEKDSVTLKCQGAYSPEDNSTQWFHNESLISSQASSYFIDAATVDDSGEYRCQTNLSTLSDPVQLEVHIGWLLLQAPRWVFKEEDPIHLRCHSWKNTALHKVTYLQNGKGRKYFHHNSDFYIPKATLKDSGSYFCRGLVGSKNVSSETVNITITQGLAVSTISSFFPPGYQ
Method: (§1) Kinetics and binding capacity were measured on a BIAcore® T200 instrument (GE Healthcare, Glattbrugg, Switzerland) at room temperature, with proteins diluted in running buffer 10 mM NaP, 150 mM NaCl, 0.05% Tween 20, pH7.6. A CM5 sensor chip (Sensor Chip SA, GE Healthcare Life Sciences) was used to immobilized engineered immunoglobulins by amine coupling. Then, recombinant human hFcγR1a, or recombinant human hFcγR3a (F158V), or recombinant human hFcRn, or hC1q was used as the analyte.
(§2) Binding data were acquired by subsequent injection of analyte dilution series on the reference and measuring flow cells. Zero concentration samples (running buffer only) were included to allow double referencing during data evaluation. For data evaluation, doubled referenced sensorgrams were analyzed and the maximum response reached during the experiment was monitored. Maximum response describes the binding capacity of the surface in terms of the response at saturation. Finally, measured maximum responses were normalized to the one measured using parental immunoglobulin (not engineered).

[4] = target: T3, recombinant human hFcγR1a (human, UniProt P12314 16-288, limits assumed); assay: as above
T3 construct: recombinant, analyte in SPR; also called FcγRI
T3 sequence (P12314 16-288 limits assumed): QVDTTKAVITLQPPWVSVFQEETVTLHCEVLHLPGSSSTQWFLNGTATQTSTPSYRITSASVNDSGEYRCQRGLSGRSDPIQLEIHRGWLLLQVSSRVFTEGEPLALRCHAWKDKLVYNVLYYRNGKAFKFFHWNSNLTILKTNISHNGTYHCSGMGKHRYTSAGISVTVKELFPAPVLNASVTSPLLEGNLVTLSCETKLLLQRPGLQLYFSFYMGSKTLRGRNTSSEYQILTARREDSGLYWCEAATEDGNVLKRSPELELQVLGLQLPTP
Method: as §1, §2

T1 sequence (P07766 23-126 limits assumed): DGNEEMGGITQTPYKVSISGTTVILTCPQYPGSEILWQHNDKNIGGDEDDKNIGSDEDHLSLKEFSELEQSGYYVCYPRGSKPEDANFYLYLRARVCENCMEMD

B1: CD3_2 (antibody, human IgG1, lambda)
heavy: EVQLVESGGGLVQPGGSLKLSCAASGFTFNTYAMNWVRQASGKGLEWVGRIRSKYNNYATYYADSVKDRFTISRDDSKSTLYLQMNSLKTEDTAVYYCVRHGNFGNSYVSWFAYWGQGTLVTVSSASTKGPSVFPLAPSSKSTSGGTAALGCLVKDYFPEPVTVSWNSGALTSGVHTFPAVLQSSGLYSLSSVVTVPSSSLGTQTYICNVNHKPSNTKVDKRVEPKSCDKTHTCPPCPAPELCCHPSVFLFPPKPKDTLMISRTPEVTCVVVGLRHEDPEVKFNWYVDGVEVHNAKTKPREEQYCGCYRVVSVLTVLHQDWLNGKEYKCKVSNKALPAPIEKTISKAKGQPREPQVYTLPPSRDELTKNQVSLTCLVKGFYPSDIAVEWESNGQPENNYKTTPPVLDSDGSFFLYSKLTVDKSRWQQGNVFSCSVMHEALHNHYTQKSLSLSPGK
light: QAVVTQEPSLTVSPGGTVTLTCRSSTGAVTTSNYANWVQQKPGQAPRGLIGGTNKRAPWTPARFSGSLLGDKAALTLSGAQPEDEAEYFCALWYSNLWVFGGGTKLTVLGQPKAAPSVTLFPPSSEELQANKATLVCLISDFYPGAVTVAWKADSSPVKAGVETTTPSKQSNNKYAASSYLSLTPEQWKSHRSYSCQVTHEGSTVEKTVAPTECS
notes: hIgG1
**Q.** B1 was tested. Which “Maximum response at 125 nM hIgG1” value (hCD3epsilon-FC antigen [1]) did it give?
**A.** The value was 386.

**Q.** And the Kd (hCD3epsilon-FC antigen [2])?
**A.** Its Kd is 2.24 nM.

**Q.** What about the “Maximum response at 300 nM hFcγR3a F158V (RU)” value [3] of the same binder?
**A.** The value was 20 RU.

**Q.** And the “Maximum response at 100 nM hFcγR1a (RU)” value [4]?
**A.** Its value is 5 RU.

B2: CD3_3 (antibody, human IgG1, lambda)
heavy: EVQLVESGGGLVQPGGSLKLSCAASGFTFNTYAMNWVRQASGKGLEWVGRIRSKYNNYATYYADSVKDRFTISRDDSKSTLYLQMNSLKTEDTAVYYCVRHGNFGNSYVSWFAYWGQGTLVTVSSASTKGPSVFPLAPSSKSTSGGTAALGCLVKDYFPEPVTVSWNSGALTSGVHTFPAVLQSSGLYSLSSVVTVPSSSLGTQTYICNVNHKPSNTKVDKRVEPKSCDKTHTCPPCPAPELCCHPSVFLFPPKPKDTLMISRTPEVTCVVTGLRDEDPEVKFNWYVDGVEVHNAKTKPREEQYCGCYRVVSVLTVLHQDWLNGKEYKCKVSNKALPAPIEKTISKAKGQPREPQVYTLPPSRDELTKNQVSLTCLVKGFYPSDIAVEWESNGQPENNYKTTPPVLDSDGSFFLYSKLTVDKSRWQQGNVFSCSVMHEALHNHYTQKSLSLSPGK
light: QAVVTQEPSLTVSPGGTVTLTCRSSTGAVTTSNYANWVQQKPGQAPRGLIGGTNKRAPWTPARFSGSLLGDKAALTLSGAQPEDEAEYFCALWYSNLWVFGGGTKLTVLGQPKAAPSVTLFPPSSEELQANKATLVCLISDFYPGAVTVAWKADSSPVKAGVETTTPSKQSNNKYAASSYLSLTPEQWKSHRSYSCQVTHEGSTVEKTVAPTECS
notes: hIgG1
**Q.** With B2 as the binder, how does the “Maximum response at 125 nM hIgG1” value (hCD3epsilon-FC antigen [1]) read?
**A.** The value was 375.

**Q.** What about the Kd (hCD3epsilon-FC antigen [2]) of the same binder?
**A.** The Kd was 2.04 nM.

**Q.** And the “Maximum response at 300 nM hFcγR3a F158V (RU)” value [3]?
**A.** The value was 2 RU.

**Q.** What about the “Maximum response at 100 nM hFcγR1a (RU)” value [4] of the same binder?
**A.** The value was 3 RU.

B3: CD3_4 (antibody, human IgG1, lambda)
heavy: EVQLVESGGGLVQPGGSLKLSCAASGFTFNTYAMNWVRQASGKGLEWVGRIRSKYNNYATYYADSVKDRFTISRDDSKSTLYLQMNSLKTEDTAVYYCVRHGNFGNSYVSWFAYWGQGTLVTVSSASTKGPSVFPLAPSSKSTSGGTAALGCLVKDYFPEPVTVSWNSGALTSGVHTFPAVLQSSGLYSLSSVVTVPSSSLGTQTYICNVNHKPSNTKVDKRVEPKSCDKTHTCPPCPAPELCCHPSVFLFPPKPKDTLMISRTPEVTCVVVDVSHEDPEVKFNWYVDGVEVHNAKTKPREEQYCGCYRVVSVLTVLHQDWLNGKEYKCKVSNKALPAPIEKTISKAKGQPREPQVYTLPPSRDELTKNQVSLTCLVKGFYPSDIAVEWESNGQPENNYKTTPPVLDSDGSFFLYSKLTVDKSRWQQGNVFSCSVMHEALHNHYTQKSLSLSPGK
light: QAVVTQEPSLTVSPGGTVTLTCRSSTGAVTTSNYANWVQQKPGQAPRGLIGGTNKRAPWTPARFSGSLLGDKAALTLSGAQPEDEAEYFCALWYSNLWVFGGGTKLTVLGQPKAAPSVTLFPPSSEELQANKATLVCLISDFYPGAVTVAWKADSSPVKAGVETTTPSKQSNNKYAASSYLSLTPEQWKSHRSYSCQVTHEGSTVEKTVAPTECS
notes: hIgG1
**Q.** Which “Maximum response at 125 nM hIgG1” value (hCD3epsilon-FC antigen [1]) does the source give for B3 here?
**A.** The value was 470.

**Q.** And the Kd (hCD3epsilon-FC antigen [2])?
**A.** The Kd was 3.38 nM.

**Q.** And the “Maximum response at 300 nM hFcγR3a F158V (RU)” value [3]?
**A.** Its value is 10 RU.

**Q.** And the “Maximum response at 100 nM hFcγR1a (RU)” value [4]?
**A.** Its value is 4 RU.

B4: CD3_4_YTE (antibody, human IgG1, lambda)
heavy: EVQLVESGGGLVQPGGSLKLSCAASGFTFNTYAMNWVRQASGKGLEWVGRIRSKYNNYATYYADSVKDRFTISRDDSKSTLYLQMNSLKTEDTAVYYCVRHGNFGNSYVSWFAYWGQGTLVTVSSASTKGPSVFPLAPSSKSTSGGTAALGCLVKDYFPEPVTVSWNSGALTSGVHTFPAVLQSSGLYSLSSVVTVPSSSLGTQTYICNVNHKPSNTKVDKRVEPKSCDKTHTCPPCPAPELCCHPSVFLFPPKPKDTLYITREPEVTCVVVDVSHEDPEVKFNWYVDGVEVHNAKTKPREEQYCGCYRVVSVLTVLHQDWLNGKEYKCKVSNKALPAPIEKTISKAKGQPREPQVYTLPPSRDELTKNQVSLTCLVKGFYPSDIAVEWESNGQPENNYKTTPPVLDSDGSFFLYSKLTVDKSRWQQGNVFSCSVMHEALHNHYTQKSLSLSPGK
light: QAVVTQEPSLTVSPGGTVTLTCRSSTGAVTTSNYANWVQQKPGQAPRGLIGGTNKRAPWTPARFSGSLLGDKAALTLSGAQPEDEAEYFCALWYSNLWVFGGGTKLTVLGQPKAAPSVTLFPPSSEELQANKATLVCLISDFYPGAVTVAWKADSSPVKAGVETTTPSKQSNNKYAASSYLSLTPEQWKSHRSYSCQVTHEGSTVEKTVAPTECS
notes: hIgG1
**Q.** How did the “Maximum response at 125 nM hIgG1” value (hCD3epsilon-FC antigen [1]) turn out when B4 was run?
**A.** Its value is 427.

**Q.** And the Kd (hCD3epsilon-FC antigen [2])?
**A.** Its Kd is 2.74 nM.

**Q.** What about the “Maximum response at 300 nM hFcγR3a F158V (RU)” value [3] of the same binder?
**A.** Its value is 10 RU.

**Q.** And the “Maximum response at 100 nM hFcγR1a (RU)” value [4]?
**A.** Its value is 4 RU.

B5: CD3_3_YTE (antibody, human IgG1, lambda)
heavy: EVQLVESGGGLVQPGGSLKLSCAASGFTFNTYAMNWVRQASGKGLEWVGRIRSKYNNYATYYADSVKDRFTISRDDSKSTLYLQMNSLKTEDTAVYYCVRHGNFGNSYVSWFAYWGQGTLVTVSSASTKGPSVFPLAPSSKSTSGGTAALGCLVKDYFPEPVTVSWNSGALTSGVHTFPAVLQSSGLYSLSSVVTVPSSSLGTQTYICNVNHKPSNTKVDKRVEPKSCDKTHTCPPCPAPELCCHPSVFLFPPKPKDTLYITREPEVTCVVTGLRDEDPEVKFNWYVDGVEVHNAKTKPREEQYCGCYRVVSVLTVLHQDWLNGKEYKCKVSNKALPAPIEKTISKAKGQPREPQVYTLPPSRDELTKNQVSLTCLVKGFYPSDIAVEWESNGQPENNYKTTPPVLDSDGSFFLYSKLTVDKSRWQQGNVFSCSVMHEALHNHYTQKSLSLSPGK
light: QAVVTQEPSLTVSPGGTVTLTCRSSTGAVTTSNYANWVQQKPGQAPRGLIGGTNKRAPWTPARFSGSLLGDKAALTLSGAQPEDEAEYFCALWYSNLWVFGGGTKLTVLGQPKAAPSVTLFPPSSEELQANKATLVCLISDFYPGAVTVAWKADSSPVKAGVETTTPSKQSNNKYAASSYLSLTPEQWKSHRSYSCQVTHEGSTVEKTVAPTECS
notes: hIgG1
**Q.** B5 was tested. Which “Maximum response at 125 nM hIgG1” value (hCD3epsilon-FC antigen [1]) did it give?
**A.** The value was 371.

**Q.** And the Kd (hCD3epsilon-FC antigen [2])?
**A.** Its Kd is 2.1 nM.

**Q.** And the “Maximum response at 300 nM hFcγR3a F158V (RU)” value [3]?
**A.** The value was 10 RU.

**Q.** And the “Maximum response at 100 nM hFcγR1a (RU)” value [4]?
**A.** The value was 7 RU.
